From patent US20230364254A1, “METHODS FOR TREATING CANCERS WITH ANTIBODY DRUG CONJUGATES (ADC) THAT BIND TO 191P4D12 PROTEINS” (priority 2020, published 2023)

Test system: patients with locally advanced or metastatic urothelial cancer
Assay: Same phase 2 study: safety (adverse events, NCI CTCAE v4.03)
Type: in vivo, human
Excerpt: Safety assessments will be based on the information collected through the safety surveillance process and will include the data from recorded adverse events (AEs) including SAEs, recording of concomitant medication, physical examination findings, cardiac monitoring, and laboratory tests.
The assessment of safety during the course of this study will consist of the surveillance and recording of AEs including SAEs, recording of concomitant medication, and measurements of protocol-specified physical examination findings, cardiac monitoring, and laboratory tests.
AE severity should be graded using the National Cancer Institute's Common Terminology Criteria for Adverse Events (NCI CTCAE), Version 4.03. These criteria are provided in the study manual.
An overview of AEs will provide a tabulation of the incidence of all AEs, treatment-emergent AEs, treatment-related AEs, Grade 3 and higher AEs. SAEs, treatment-related SAEs, deaths, and AEs leading to study treatment discontinuation. Adverse events will be defined as treatment emergent if they are newly occurring or worsened following study treatment.
AEs will be classified by system organ class and preferred tem using the Medical Dictionary for Regulatory Activities (MedDRA) and graded using NCI CTCAE, Version 4.03.
The incidence of AEs will be summarized by system organ class, preferred term, severity and relationship to study drug. In the event of multiple occurrences of the same AE in one patient, the AE will be counted once as the occurrence for the maximum grade. AEs leading to premature discontinuation of study drug will be summarized and listed in the same manner.

[1] = Cohort 1 (N = 125), count (percent)

“enfortumab vedotin: Nectin-4 directed ADC: fully human anti-nectin-4 IgG1 kappa antibody (AGS-22C3) conjugated to MMAE via protease-cleavable maleimidocaproyl valine-citrulline linker” was tested, and the “AE of special interest, All Grade: Hyperglycemia” value (Cohort 1 (N = 125)) was 20 (16) N (%), the “AE of special interest, All Grade: IRR” value (Cohort 1 (N = 125)) was 8 (6.4) N (%) and the “AE of special interest, All Grade: Ocular Events, Blurred Vision” value (Cohort 1 (N = 125)) was 21 (16.8) N (%). For the same substance, the “AE of special interest, All Grade: Ocular Events, Corneal Disorders” value (Cohort 1 (N = 125)) was 18 (14.4) N (%), the “AE of special interest, All Grade: Ocular Events, Dry Eye Disorders” value (Cohort 1 (N = 125)) was 51 (40.8) N (%) and the “AE of special interest, All Grade: Peripheral Neuropathy” value (Cohort 1 (N = 125)) was 70 (56) N (%). The “AE of special interest, All Grade: Rash” value (Cohort 1 (N = 125)) was 67 (53.6) N (%), the “AE of special interest, ≥Gr 3: Hyperglycemia” value (Cohort 1 (N = 125)) was 10 (8) N (%) and the “AE of special interest, ≥Gr 3: IRR” value (Cohort 1 (N = 125)) was 1 (0.8) N (%). For the same substance, the “AE of special interest, ≥Gr 3: Peripheral Neuropathy” value (Cohort 1 (N = 125)) was 5 (4) N (%), the “AE of special interest, ≥Gr 3: Rash” value (Cohort 1 (N = 125)) was 15 (12.0) N (%) and the “Any TEAEs” value (Cohort 1 (N = 125)) was 125 (100.0) n (%). For the same substance, the “Any TEAEs leading to death” value (Cohort 1 (N = 125)) was 7 (5.6) n (%), the “Any TEAEs leading to treatment discontinuation” value (Cohort 1 (N = 125)) was 21 (16.8) n (%) and the “Any grade 3-5 TEAEs” value (Cohort 1 (N = 125)) was 92 (73.6) n (%). The “Any serious TEAEs” value (Cohort 1 (N = 125)) was 58 (46.4) n (%), the “SAEs (All): Acute kidney injury” value (Cohort 1 (N = 125)) was 4 (3.2) n (%) and the “SAEs (All): Cellulitis” value (Cohort 1 (N = 125)) was 6 (4.8) n (%). For the same substance, the “SAEs (All): Diarrhoea” value (Cohort 1 (N = 125)) was 3 (2.4) n (%), the “SAEs (All): Febrile neutropenia” value (Cohort 1 (N = 125)) was 5 (4.0) n (%) and the “SAEs (All): Nausea” value (Cohort 1 (N = 125)) was 3 (2.4) n (%). The “SAEs (All): Overall” value (Cohort 1 (N = 125)) was 59 (47.2) n (%), the “SAEs (All): Pneumonia” value (Cohort 1 (N = 125)) was 3 (2.4) n (%) and the “SAEs (All): Sepsis” value (Cohort 1 (N = 125)) was 4 (3.2) n (%). For the same substance, the “SAEs (All): Urinary tract infection” value (Cohort 1 (N = 125)) was 6 (4.8) n (%), the “SAEs (Related): Acute kidney injury” value (Cohort 1 (N = 125)) was 1 (0.8) n (%) and the “SAEs (Related): Cellulitis” value (Cohort 1 (N = 125)) was 2 (1.6) n (%). The “SAEs (Related): Diarrhoea” value (Cohort 1 (N = 125)) was 1 (0.8) n (%), the “SAEs (Related): Febrile neutropenia” value (Cohort 1 (N = 125)) was 5 (4.0) n (%) and the “SAEs (Related): Nausea” value (Cohort 1 (N = 125)) was 3 (2.4) n (%). The “SAEs (Related): Overall” value (Cohort 1 (N = 125)) was 24 (19.2) n (%), the “Treatment-related AE leading to discontinuation: Asthenia” value (Cohort 1 (N = 125)) was 1 (0.8) n (%) and the “Treatment-related AE leading to discontinuation: Drug eruption” value (Cohort 1 (N = 125)) was 1 (0.8) n (%). For the same substance, the “Treatment-related AE leading to discontinuation: Enterocolitis” value (Cohort 1 (N = 125)) was 1 (0.8) n (%), the “Treatment-related AE leading to discontinuation: Fatigue” value (Cohort 1 (N = 125)) was 1 (0.8) n (%) and the “Treatment-related AE leading to discontinuation: Hyperglycaemia” value (Cohort 1 (N = 125)) was 1 (0.8) n (%). For the same substance, the “Treatment-related AE leading to discontinuation: Interstitial lung disease” value (Cohort 1 (N = 125)) was 1 (0.8) n (%), the “Treatment-related AE leading to discontinuation: Overall” value (Cohort 1 (N = 125)) was 15 (12.0) n (%) and the “Treatment-related AE leading to discontinuation: Peripheral sensory neuropathy” value (Cohort 1 (N = 125)) was 8 (6.4) n (%). The “Treatment-related AE leading to discontinuation: Stevens-Johnson syndrome” value (Cohort 1 (N = 125)) was 1 (0.8) n (%), the “Treatment-related TEAEs” value (Cohort 1 (N = 125)) was 117 (93.6) n (%) and the “Treatment-related TEAEs (all grades): Alopecia” value (Cohort 1 (N = 125)) was 62 (49.6) n (%). For the same substance, the “Treatment-related TEAEs (all grades): Anaemia” value (Cohort 1 (N = 125)) was 27 (21.6) n (%), the “Treatment-related TEAEs (all grades): Aspartate aminotransferase increased” value (Cohort 1 (N = 125)) was 17 (13.6) n (%) and the “Treatment-related TEAEs (all grades): Decreased appetite” value (Cohort 1 (N = 125)) was 55 (44.0) n (%). For the same substance, the “Treatment-related TEAEs (all grades): Diarrhoea” value (Cohort 1 (N = 125)) was 41 (32.8) n (%), the “Treatment-related TEAEs (all grades): Dry eye” value (Cohort 1 (N = 125)) was 25 (20.0) n (%) and the “Treatment-related TEAEs (all grades): Dry skin” value (Cohort 1 (N = 125)) was 30 (24.0) n (%). For the same substance, the “Treatment-related TEAEs (all grades): Dysgeusia” value (Cohort 1 (N = 125)) was 47 (37.6) n (%), the “Treatment-related TEAEs (all grades): Fatigue” value (Cohort 1 (N = 125)) was 62 (49.6) n (%) and the “Treatment-related TEAEs (all grades): Lacrimation increased” value (Cohort 1 (N = 125)) was 21 (16.8) n (%). For the same substance, the “Treatment-related TEAEs (all grades): Nausea” value (Cohort 1 (N = 125)) was 50 (40.0) n (%), the “Treatment-related TEAEs (all grades): Neutropenia” value (Cohort 1 (N = 125)) was 13 (10.4) n (%) and the “Treatment-related TEAEs (all grades): Oedema peripheral” value (Cohort 1 (N = 125)) was 15 (12.0) n (%). The “Treatment-related TEAEs (all grades): Overall” value (Cohort 1 (N = 125)) was 117 (93.6) n (%), the “Treatment-related TEAEs (all grades): Peripheral sensory neuropathy” value (Cohort 1 (N = 125)) was 50 (40.0) n (%) and the “Treatment-related TEAEs (all grades): Pruritus” value (Cohort 1 (N = 125)) was 32 (25.6) n (%). For the same substance, the “Treatment-related TEAEs (all grades): Rash maculo-papular” value (Cohort 1 (N = 125)) was 28 (22.4) n (%), the “Treatment-related TEAEs (all grades): Vomiting” value (Cohort 1 (N = 125)) was 19 (15.2) n (%) and the “Treatment-related TEAEs (all grades): Weight decreased” value (Cohort 1 (N = 125)) was 29 (23.2) n (%). For the same substance, the “Treatment-related TEAEs leading to death” value (Cohort 1 (N = 125)) was 0 n (%), the “Treatment-related TEAEs leading to treatment discontinuation” value (Cohort 1 (N = 125)) was 15 (12.0) n (%) and the “Treatment-related TEAEs ≥Grade 3: Acute kidney injury” value (Cohort 1 (N = 125)) was 1 (0.8) n (%). The “Treatment-related TEAEs ≥Grade 3: Amylase increased” value (Cohort 1 (N = 125)) was 3 (2.4) n (%), the “Treatment-related TEAEs ≥Grade 3: Anaemia” value (Cohort 1 (N = 125)) was 9 (7.2) n (%) and the “Treatment-related TEAEs ≥Grade 3: Aspartate aminotransferase increased” value (Cohort 1 (N = 125)) was 4 (3.2) n (%). The “Treatment-related TEAEs ≥Grade 3: Decreased appetite” value (Cohort 1 (N = 125)) was 1 (0.8) n (%), the “Treatment-related TEAEs ≥Grade 3: Diarrhoea” value (Cohort 1 (N = 125)) was 3 (2.4) n (%) and the “Treatment-related TEAEs ≥Grade 3: Fatigue” value (Cohort 1 (N = 125)) was 8 (6.4) n (%). For the same substance, the “Treatment-related TEAEs ≥Grade 3: Febrile neutropenia” value (Cohort 1 (N = 125)) was 5 (4.0) n (%), the “Treatment-related TEAEs ≥Grade 3: Hyperglycaemia” value (Cohort 1 (N = 125)) was 5 (4.0) n (%) and the “Treatment-related TEAEs ≥Grade 3: Hyponatraemia” value (Cohort 1 (N = 125)) was 3 (2.4) n (%). The “Treatment-related TEAEs ≥Grade 3: Lipase increased” value (Cohort 1 (N = 125)) was 5 (4.0) n (%), the “Treatment-related TEAEs ≥Grade 3: Neutropenia” value (Cohort 1 (N = 125)) was 10 (8.0) n (%) and the “Treatment-related TEAEs ≥Grade 3: Neutrophil count decreased” value (Cohort 1 (N = 125)) was 3 (2.4) n (%). For the same substance, the “Treatment-related TEAEs ≥Grade 3: Overall” value (Cohort 1 (N = 125)) was 70 (56.0) n (%), the “Treatment-related TEAEs ≥Grade 3: Peripheral sensory neuropathy” value (Cohort 1 (N = 125)) was 2 (1.6) n (%) and the “Treatment-related TEAEs ≥Grade 3: Pruritus” value (Cohort 1 (N = 125)) was 2 (1.6) n (%). For the same substance, the “Treatment-related TEAEs ≥Grade 3: Rash erythematous” value (Cohort 1 (N = 125)) was 4 (3.2) n (%), the “Treatment-related TEAEs ≥Grade 3: Rash maculo-papular” value (Cohort 1 (N = 125)) was 5 (4.0) n (%) and the “Treatment-related grade 3-5 TEAEs” value (Cohort 1 (N = 125)) was 70 (56.9) n (%). The “Treatment-related serious TEAEs” value (Cohort 1 (N = 125)) was 24 (19.2) n (%), the “TEAEs leading to death (excluding disease progression): Acute respiratory failure” value [1] was 1 (0.8) and the “TEAEs leading to death (excluding disease progression): Cardiac disorder” value [1] was 1 (0.8). The “TEAEs leading to death (excluding disease progression): Overall” value [1] was 4 (3.2), the “TEAEs leading to death (excluding disease progression): Pneumonia aspiration” value [1] was 1 (0.8) and the “TEAEs leading to death (excluding disease progression): Sepsis” value [1] was 1 (0.8). The “AE of special interest, All Grade: Hyperglycemia” value (Cohort 2 (N = 89)) was 16 (18) N (%) and the “AE of special interest, All Grade: IRR” value (Cohort 2 (N = 89)) was 6 (6.7) N (%).
